Measured values reported in patent publication US20250122271A1, “ANTI-DKK1 ANTIBODY, PHARMACEUTICAL COMPOSITION THEREOF, AND USE THEREOF” (SHANGHAI JUNSHI BIOSCIENCES CO., LTD., priority 2022, published 2025).
Like-named read-outs stand apart in the source and are kept apart here.

Key:
[1] = target: T1, human DKK1 antigen (Sino Biological, 10170-H08H) (human, UniProt O94907 32-266); assay: ELISA blocking of DKK1-LRP6
T1 chain: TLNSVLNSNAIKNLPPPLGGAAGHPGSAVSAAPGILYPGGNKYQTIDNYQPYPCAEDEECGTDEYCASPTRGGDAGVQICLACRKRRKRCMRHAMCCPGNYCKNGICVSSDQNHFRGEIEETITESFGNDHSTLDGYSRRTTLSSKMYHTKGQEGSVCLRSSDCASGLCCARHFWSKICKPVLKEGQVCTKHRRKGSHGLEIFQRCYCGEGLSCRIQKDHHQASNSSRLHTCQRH

[2] = target: T1, human DKK1 antigen (Sino Biological, …); assay: ELISA binding; given as IC50; FIG. 4A
[3] = target: T1, human DKK1 antigen (Sino Biological, …); assay: ELISA binding; FIG. 4B
[4] = target: T1, human DKK1 antigen (Sino Biological, …); assay: ELISA blocking of DKK1-LRP6

IC50 [1]: 0.324 mg/L | EC50 [2]: 0.0148 mg/L | EC50 [3]: 0.0154 mg/L | IC50 [4]: 1.24 mg/L
B1: DKN-01 (antibody, V domains shown)
VH: EVQLVESGGGLVQPGGSLRLSCAASGFTFSSYTMSWVRQAPGKGLEWVATISGGGFGTYYPDSVKGRFTISRDNAKNSLYLQMNSLRAEDTAVYYCARPGYNNYYFDIWGQGTTVTVSS
VL: EIVLTQSPATLSLSPGERATLSCHASDSISNSLHWYQQKPGQAPRLLIYYARQSIQGIPARFSGSGSGTDFTLTISSLEPEDFAVYYCQQSESWPLHFGGGTKVEIKR
